± gives the standard deviation.
Test: protein stability index of a GFP-peptide fusion (GPS, HEK-293T) (PSI 1-6); higher = more stable
Settings: c terminus: a fixed tail appended
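Note: 24-mer peptide tiles fused after GFP, lentivirally expressed, FACS-sorted into six equal bins by GFP/DsRed ratio, decoded by Illumina sequencing, PSI is the read-weighted mean bin number.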

| Sequence | protein stability index (treatment: DMSO) | protein stability index (treatment: MLN4924 1 uM, 8 h) |
| --- | --- | --- |
| EADENENITVVKGIRLSENVIDRM [CHCHD3] | 4.75 ± 0.17 | 4.7 ± 0.11 |
| HFFGDKALKKRSGKKDKHSQSPRA [PBXIP1] | 4.09 ± 0.36 | 4.33 ± 0.45 |
| TLPYPVKIKVRFSFFLQIYLIMIF [HACD3] | 2.86 ± 0.94 | 2.84 ± 0.72 |
| ESRRQQILREFEELHRRLDEEQQV [TRIM39] | 4.87 ± 0.23 | 4.8 ± 0.097 |
| KDSYSSRDYPSSRDTRDYAPPPRD [RBMX] | 4.08 ± 0.24 | 4.09 ± 0.6 |
| CDFKIDAGDRFLEALGFSWHDTCF [PDLIM7] | 2.6 ± 0.5 | 2.47 ± 0.46 |
| LELVINYQQLCIYWTKYYDFKNPI [OAS1] | 3.22 ± 0.24 | 3.33 ± 0.18 |
| NREACRDLSGRRLRDVNHEKAMAE [SDE2] | 5.01 ± 0.12 | 4.87 ± 0.32 |
| NLLQYVRMPLLTPRYITDVIDAEP [KLHL12] | 2.29 ± 0.45 | 2.33 ± 0.26 |
| QSKPLLSAFADIIHSLKESGQLWL [FADS1] | 2.8 ± 0.4 | 2.87 ± 0.68 |
| KRCINLWKYALDMQQSNLDPLSPM [FEM1C] | 2.33 ± 0.48 | 2.07 ± 0.38 |
| PRAVFVLLEERRPADSAQLLSLNS [TFE3] | 2.29 ± 0.12 | 2.4 ± 0.2 |
| TPLLIAARYGHLDVVEYLVDRCGA [FEM1A] | 2.05 ± 0.27 | 2.18 ± 0.15 |
| VCNINKGCGYGCQLHHVVYCFMIA [FUT8] | 2.89 ± 0.42 | 3.2 ± 0.68 |
| NKILQVFWEEHKASLGREESRAPS [CBY2] | 3.02 ± 0.13 | 3.09 ± 0.22 |
| NRERVVSLIEDLQRELEIPEQQVD [ZNF449] | 5.13 ± 0.23 | 5.17 ± 0.16 |
| HYVAQTGILWLLMNNCFLNLSPRK [GAGE1] | 2.72 ± 0.38 | 3.584 ± 0.027 |
| QTLRQELSLPYLPSGTPELEVPKP [CHIT1] | 4.7 ± 0.15 | 4.69 ± 0.36 |

| Sequence | protein stability index (treatment: DMSO) | protein stability index (treatment: MLN4924 1 uM, 8 h) |
| --- | --- | --- |
| TIEECCRKQKQELCEKFDYLYGIL [TRIM55] | 1.88 ± 0.54 | 2.41 ± 0.85 |
| EARSLEHTLPVNRETLKRKVSGNR [ESR2] | 4.95 ± 0.27 | 5.16 ± 0.2 |
| LLVVGGFGSQQSPIDVVEKYDPKT [KLHL12] | 3 ± 0.55 | 3.61 ± 0.33 |
| GESYESCCPTSREAAVEALELLGA [FEM1A] | 4.58 ± 0.12 | 4.66 ± 0.2 |
| PCAAAREGRLERRECGLAAPRFSF [IRX6] | 3.01 ± 0.21 | 2.89 ± 0.4 |
| RGSRGAPPPLGPVVPVLVFPPDLV [MOSPD3] | 2.67 ± 0.05 | 2.96 ± 0.22 |
| DFGACDGGLLTGNEKITMQNLNDR [KRT13] | 4.57 ± 0.33 | 4.53 ± 0.37 |
| RVTVSRASSSRSVRTTRGKRKRVD [LMNB1] | 4.46 ± 0.2 | 4.34 ± 0.1 |
| PSFCPVQPCFFQDISMEIPQEFQK [SCAMP3] | 3.64 ± 0.35 | 3.69 ± 0.21 |
| RGLEPGKGRHHRGRGGEPRAYFMS [CHGB] | 4.36 ± 0.092 | 4.24 ± 0.13 |
| AMDNHSDSEEELAAFCPQLDDSTV [RETREG3] | 5.34 ± 0.23 | 5.4 ± 0.14 |
| ATQSHSISSSSFGAEPSAPGGGGS [RTN3] | 5.19 ± 0.23 | 5.19 ± 0.093 |
| PILRLLPQGISPVSQHWATWALYN [ZER1] | 2.78 ± 0.37 | 2.95 ± 0.34 |
| RALESELQQLRARLQGLEADCVRG [PBXIP1] | 3.47 ± 0.19 | 3.31 ± 0.13 |
| EVIPYTPAMQRYVKRLHEVGRTEP [HMOX1] | 3.18 ± 0.21 | 3.41 ± 0.25 |
| APTADDDDDDHDDHEDNDKMNDSE [NOL4L] | 5.53 ± 0.2 | 5.54 ± 0.28 |
| PAYKVSGDKNEEQVLNAIEAYTEH [ZER1] | 5.06 ± 0.17 | 5.02 ± 0.17 |
| ADFKGVLQRPSYKFFFKSMDDDFG [DVL3] | 2.5 ± 0.28 | 2.67 ± 0.11 |

Source: the supplement of paper PMC10567573
